Results: patent publication US20050187155A1 (NESTEC S A, published 2005)

T1: MMP-7
T1 sequence (P09237 95-267, species assumed, looked up): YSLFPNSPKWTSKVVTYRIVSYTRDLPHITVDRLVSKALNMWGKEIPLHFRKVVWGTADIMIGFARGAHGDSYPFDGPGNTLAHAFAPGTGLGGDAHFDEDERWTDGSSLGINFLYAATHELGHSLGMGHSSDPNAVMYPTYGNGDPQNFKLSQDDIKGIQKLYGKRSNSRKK


Tests used:
Assay in all cases: cell-based or functional assay
MMP-2 = target: MMP-2
MMP-9 = target: MMP-9
MMP-7 = target: T1, MMP-7
[1] = target: angiotensin-converting enzyme (ACE)

Binder	IC50 for the inhibition of MMPs using a fluorescein conjugated gelatin (MMP-2)	IC50 for the inhibition of MMPs using a fluorescein conjugated gelatin (MMP-9)	IC50 for the inhibition of MMPs using a fluorescein conjugated gelatin (MMP-7)	IC50 for the inhibition of ACE using the substrate FAPGG [1]
NLHLPLPLL [NLHLPLPLL (SEQ ID NO:12)]	450 µM	600 µM	1200 µM	15 µM
FVAPFPEVFG [FVAPFPEVFG (SEQ ID NO:23)]	500 µM	400 µM	300 µM	650 µM
ENLLRFFVAPFPEVFG [ENLLRFFVAPFPEVFG (SEQ ID NO:22)]	425 µM	150 µM	1000 µM	250 µM
NENLLRFFVAPFPEVFG [NENLLRFFVAPFPEVFG (SEQ ID NO:21)]	275 µM	50 µM	850 µM	55 µM
LNENLLRFFVAPFPEVFG [LNENLLRFFVAPFPEVFG (SEQ ID NO:20)]	250 µM	150 µM	300 µM	280 µM
ENLHLPLPLL [ENLHLPLPLL (SEQ ID NO:19)]	200 µM	300 µM	275 µM	250 µM
VENLHLPLPLL [VENLHLPLPLL (SEQ ID NO:18)]	150 µM	300 µM	250 µM	175 µM
